Laboratory results: patent publication US20090054344A1

Biological target: αvβ3 integrin on C-PAE cells (bovine) (UniProt P80746)
Experiment: C-PAE attachment to plates coated with 293-produced Tumstatin; 10 µg/ml peptide; competitor is the Tumstatin coat

Sequence of αvβ3 integrin on C-PAE cells (bovine) (P80746 31-1048): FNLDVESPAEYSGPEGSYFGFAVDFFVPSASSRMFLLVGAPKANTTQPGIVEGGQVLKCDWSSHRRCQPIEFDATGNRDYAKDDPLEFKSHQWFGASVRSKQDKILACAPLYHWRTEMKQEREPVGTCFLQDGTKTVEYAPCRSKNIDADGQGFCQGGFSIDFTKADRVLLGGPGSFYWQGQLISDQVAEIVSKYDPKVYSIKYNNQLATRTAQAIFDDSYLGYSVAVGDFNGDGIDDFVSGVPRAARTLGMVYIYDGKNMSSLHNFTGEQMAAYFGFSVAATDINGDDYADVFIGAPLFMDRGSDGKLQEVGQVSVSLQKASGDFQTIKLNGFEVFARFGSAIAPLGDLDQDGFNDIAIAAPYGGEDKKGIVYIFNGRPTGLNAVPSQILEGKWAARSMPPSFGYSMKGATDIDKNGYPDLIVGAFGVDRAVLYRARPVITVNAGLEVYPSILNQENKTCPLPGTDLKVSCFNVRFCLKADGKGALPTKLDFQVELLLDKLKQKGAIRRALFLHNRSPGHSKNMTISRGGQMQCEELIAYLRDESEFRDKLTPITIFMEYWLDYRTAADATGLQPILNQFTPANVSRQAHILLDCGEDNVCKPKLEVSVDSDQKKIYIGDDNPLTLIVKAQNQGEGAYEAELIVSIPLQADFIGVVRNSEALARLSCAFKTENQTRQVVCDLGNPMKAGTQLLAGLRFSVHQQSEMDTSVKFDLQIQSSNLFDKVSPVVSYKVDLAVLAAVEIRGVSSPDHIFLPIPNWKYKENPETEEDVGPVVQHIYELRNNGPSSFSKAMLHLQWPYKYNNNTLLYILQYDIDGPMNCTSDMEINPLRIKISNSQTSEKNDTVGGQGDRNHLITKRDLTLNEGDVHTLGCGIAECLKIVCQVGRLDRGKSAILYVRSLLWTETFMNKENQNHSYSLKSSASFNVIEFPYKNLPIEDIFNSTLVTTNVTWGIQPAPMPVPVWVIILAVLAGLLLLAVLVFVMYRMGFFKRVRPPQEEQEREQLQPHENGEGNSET

LQRFTTMPFLFCNVNDVCNF [T3 peptide]
% inhibition of cell attachment: 46.4%
